Measurements as given in patent US20100260668A1 (published 2010).

B1: DVD446 (bispecific antibody, IgG1)
VH: EVQLVESGGGLVQPGGSLRLSCAASGFTINASWIHWVRQAPGKGLEWVGAIYPYSGYTNYADSVKGRFTISADTSKNTAYLQMNSLRAEDTAVYYCARWGHSTSPWAMDYWGQGTLVTVSSASTKGPQVQLVQSGAEVKKPGASVKISCKASGYSFTAYYIHWVKQAPGQGLEWIGYISSYNGATNYNQKFKGRVTFTTDTSTSTAYMELRSLRSDDTAVYYCARDYDYDVGMDYWGQGTLVTVSS
VL: DIQMTQSPSSLSASVGDRVTITCRASQVIRRSLAWYQQKPGKAPKLLIYAASNLASGVPSRFSGSGSGTDFTLTISSLQPEDFATYYCQQSNTSPLTFGQGTKVEIKRTVAAPDIVMTQSPDSLAVSLGERATISCRASESVDNYGISFMKWFQQKPGQPPKLLIYAASNQGSGVPDRFSGSGSGTDFTLTISSLQAEDVAVYYCQQSKEVPWTFGGGTKVEIKR
notes: DVD-Ig, outer AB071 / inner AB069; HC linker short, LC linker short; also called DVD446H; DVD446L
B2: DVD477 (bispecific antibody, IgG1)
VH: EVQLVESGGGLVQPGGSLRLSCAASGFTFTDNWISWVRQAPGKGLEWVGYISPNSGFTYYADSVKGRFTISADTSKNTAYLQMNSLRAEDTAVYYCARDNFGGYFDYWGQGTLVTVSSASTKGPSVFPLAPEVQLVESGGGLVQPGGSLRLSCAASGFTISDYWIHWVRQAPGKGLEWVAGITPAGGYTYYADSVKGRFTISADTSKNTAYLQMNSLRAEDTAVYYCARFVFFLPYAMDYWGQGTLVTVSS
VL: DIQMTQSPSSLSASVGDRVTITCRASQDVSTAVAWYQQKPGKAPKLLIYSASFLYSGVPSRFSGSGSGTDFTLTISSLQPEDFATTYYCQQSYTGTVTFGQGTKVEIKRTVAAPDIQMTQSPSSLSASVGDRVTITCRASQDVSTAVAWYQQKPGKAPKLLIYSASFLYSGVPSRFSGSGSGTDFTLTISSLQPEDFATYYCQQSYTTPPTFGQGTKVEIKR
notes: HC linker long, LC linker short; also called DVD477H; DVD477L
B3: DVD451 (bispecific antibody, IgG1)
VH: QVQLVQSGAEVKKPGASVKISCKASGYSFTAYYIHWVKQAPGQGLEWIGYISSYNGATNYNQKFKGRVTFTTDTSTSTAYMELRSLRSDDTAVYYCARDYDYDVGMDYWGQGTLVTVSSASTKGPSVFPLAPEVQLVESGGGLVQPGGSLRLSCAASGFTINASWIHWVRQAPGKGLEWVGAIYPYSGYTNYADSVKGRFTISADTSKNTAYLQMNSLRAEDTAVYYCARWGHSTSPWAMDYWGQGTLVTVSS
VL: DIVMTQSPDSLAVSLGERATISCRASESVDNYGISFMKWFQQKPGQPPKLLIYAASNQGSGVPDRFSGSGSGTDFTLTISSLQAEDVAVYYCQQSKEVPWTFGGGTKVEIKRTVAAPSVFIFPPDIQMTQSPSSLSASVGDRVTITCRASQVIRRSLAWYQQKPGKAPKLLIYAASNLASGVPSRFSGSGSGTDFTLTISSLQPEDFATYYCQQSNTSPLTFGQGTKVEIKR
notes: DVD-Ig, outer AB069 / inner AB071; HC linker long, LC linker long; also called DVD451H; DVD451L
B4: DVD445 (bispecific antibody, IgG1)
VH: QVQLVQSGAEVKKPGASVKISCKASGYSFTAYYIHWVKQAPGQGLEWIGYISSYNGATNYNQKFKGRVTFTTDTSTSTAYMELRSLRSDDTAVYYCARDYDYDVGMDYWGQGTLVTVSSASTKGPEVQLVESGGGLVQPGGSLRLSCAASGFTINASWIHWVRQAPGKGLEWVGAIYPYSGYTNYADSVKGRFTISADTSKNTAYLQMNSLRAEDTAVYYCARWGHSTSPWAMDYWGQGTLVTVSS
VL: DIVMTQSPDSLAVSLGERATISCRASESVDNYGISFMKWFQQKPGQPPKLLIYAASNQGSGVPDRFSGSGSGTDFTLTISSLQAEDVAVYYCQQSKEVPWTFGGGTKVEIKRTVAAPDIQMTQSPSSLSASVGDRVTITCRASQVIRRSLAWYQQKPGKAPKLLIYAASNLASGVPSRFSGSGSGTDFTLTISSLQPEDFATYYCQQSNTSPLTFGQGTKVEIKR
notes: DVD-Ig, outer AB069 / inner AB071; HC linker short, LC linker short; also called DVD445H; DVD445L
B5: DVD484 (bispecific antibody, IgG1)
VH: EVQLVESGGGLVQPGGSLRLSCAASGFTISDYWIHWVRQAPGKGLEWVAGITPAGGYTYYADSVKGRFTISADTSKNTAYLQMNSLRAEDTAVYYCARFVFFLPYAMDYWGQGTLVTVSSASTKGPEVQLVESGGGLVQPGGSLRLSCAASGFTFTDNWISWVRQAPGKGLEWVGYISPNSGFTYYADSVKGRFTISADTSKNTAYLQMNSLRAEDTAVYYCARDNFGGYFDYWGQGTLVTVSS
VL: DIQMTQSPSSLSASVGDRVTITCRASQDVSTAVAWYQQKPGKAPKLLIYSASFLYSGVPSRFSGSGSGTDFTLTISSLQPEDFATYYCQQSYTTPPTFGQGTKVEIKRTVAAPSVFIFPPDIQMTQSPSSLSASVGDRVTITCRASQDVSTAVAWYQQKPGKAPKLLIYSASFLYSGVPSRFSGSGSGTDFTLTISSLQPEDFATTYYCQQSYTGTVTFGQGTKVEIKR
notes: HC linker short, LC linker long; also called DVD484H; DVD484L
B6: DVD478 (bispecific antibody, IgG1)
VH: EVQLVESGGGLVQPGGSLRLSCAASGFTISDYWIHWVRQAPGKGLEWVAGITPAGGYTYYADSVKGRFTISADTSKNTAYLQMNSLRAEDTAVYYCARFVFFLPYAMDYWGQGTLVTVSSASTKGPSVFPLAPEVQLVESGGGLVQPGGSLRLSCAASGFTFTDNWISWVRQAPGKGLEWVGYISPNSGFTYYADSVKGRFTISADTSKNTAYLQMNSLRAEDTAVYYCARDNFGGYFDYWGQGTLVTVSS
VL: DIQMTQSPSSLSASVGDRVTITCRASQDVSTAVAWYQQKPGKAPKLLIYSASFLYSGVPSRFSGSGSGTDFTLTISSLQPEDFATYYCQQSYTTPPTFGQGTKVEIKRTVAAPDIQMTQSPSSLSASVGDRVTITCRASQDVSTAVAWYQQKPGKAPKLLIYSASFLYSGVPSRFSGSGSGTDFTLTISSLQPEDFATTYYCQQSYTGTVTFGQGTKVEIKR
notes: HC linker long, LC linker short; also called DVD478H; DVD478L
B7: DVD452 (bispecific antibody, IgG1)
VH: EVQLVESGGGLVQPGGSLRLSCAASGFTINASWIHWVRQAPGKGLEWVGAIYPYSGYTNYADSVKGRFTISADTSKNTAYLQMNSLRAEDTAVYYCARWGHSTSPWAMDYWGQGTLVTVSSASTKGPSVFPLAPQVQLVQSGAEVKKPGASVKISCKASGYSFTAYYIHWVKQAPGQGLEWIGYISSYNGATNYNQKFKGRVTFTTDTSTSTAYMELRSLRSDDTAVYYCARDYDYDVGMDYWGQGTLVTVSS
VL: DIQMTQSPSSLSASVGDRVTITCRASQVIRRSLAWYQQKPGKAPKLLIYAASNLASGVPSRFSGSGSGTDFTLTISSLQPEDFATYYCQQSNTSPLTFGQGTKVEIKRTVAAPSVFIFPPDIVMTQSPDSLAVSLGERATISCRASESVDNYGISFMKWFQQKPGQPPKLLIYAASNQGSGVPDRFSGSGSGTDFTLTISSLQAEDVAVYYCQQSKEVPWTFGGGTKVEIKR
notes: DVD-Ig, outer AB071 / inner AB069; HC linker long, LC linker long; also called DVD452H; DVD452L
B8: DVD483 (bispecific antibody, IgG1)
VH: EVQLVESGGGLVQPGGSLRLSCAASGFTFTDNWISWVRQAPGKGLEWVGYISPNSGFTYYADSVKGRFTISADTSKNTAYLQMNSLRAEDTAVYYCARDNFGGYFDYWGQGTLVTVSSASTKGPEVQLVESGGGLVQPGGSLRLSCAASGFTISDYWIHWVRQAPGKGLEWVAGITPAGGYTYYADSVKGRFTISADTSKNTAYLQMNSLRAEDTAVYYCARFVFFLPYAMDYWGQGTLVTVSS
VL: DIQMTQSPSSLSASVGDRVTITCRASQDVSTAVAWYQQKPGKAPKLLIYSASFLYSGVPSRFSGSGSGTDFTLTISSLQPEDFATTYYCQQSYTGTVTFGQGTKVEIKRTVAAPSVFIFPPDIQMTQSPSSLSASVGDRVTITCRASQDVSTAVAWYQQKPGKAPKLLIYSASFLYSGVPSRFSGSGSGTDFTLTISSLQPEDFATYYCQQSYTTPPTFGQGTKVEIKR
notes: HC linker short, LC linker long; also called DVD483H; DVD483L

target: VEGF (VEGF 1-165 aa, R&D Systems 293-VE-010) (UniProt P15692 27-191); test: Direct bind ELISA, VEGF coated on plate;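 note: ELISA screening of antibodies for binding to the plate-coated target antigen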
Sequence (P15692 other isoform, or with tags, fused parts or gaps limits assumed): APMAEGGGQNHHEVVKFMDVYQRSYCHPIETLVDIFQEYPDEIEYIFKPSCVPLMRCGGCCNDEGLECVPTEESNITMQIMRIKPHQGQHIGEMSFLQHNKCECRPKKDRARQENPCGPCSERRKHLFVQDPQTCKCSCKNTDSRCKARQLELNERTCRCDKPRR

| Binder | EC50 [nM] |
| --- | --- |
| B1 | 14.4 |
| B2 | 41.7 |
| B3 | 2400 |
| B4 | 14500 |
| B5 | 4.84 |
| B6 | 2.72 |
| B7 | 17.8 |
| B8 | 46.1 |
